T1: human EPHB1 without signal sequence, FLAG-tagged, expressed from pFLAG-EPHB1 (human, UniProt P54762 18-984)
T1 construct: not shown: FLAG tag supplied by the vector pFLAG-GW
T1 sequence: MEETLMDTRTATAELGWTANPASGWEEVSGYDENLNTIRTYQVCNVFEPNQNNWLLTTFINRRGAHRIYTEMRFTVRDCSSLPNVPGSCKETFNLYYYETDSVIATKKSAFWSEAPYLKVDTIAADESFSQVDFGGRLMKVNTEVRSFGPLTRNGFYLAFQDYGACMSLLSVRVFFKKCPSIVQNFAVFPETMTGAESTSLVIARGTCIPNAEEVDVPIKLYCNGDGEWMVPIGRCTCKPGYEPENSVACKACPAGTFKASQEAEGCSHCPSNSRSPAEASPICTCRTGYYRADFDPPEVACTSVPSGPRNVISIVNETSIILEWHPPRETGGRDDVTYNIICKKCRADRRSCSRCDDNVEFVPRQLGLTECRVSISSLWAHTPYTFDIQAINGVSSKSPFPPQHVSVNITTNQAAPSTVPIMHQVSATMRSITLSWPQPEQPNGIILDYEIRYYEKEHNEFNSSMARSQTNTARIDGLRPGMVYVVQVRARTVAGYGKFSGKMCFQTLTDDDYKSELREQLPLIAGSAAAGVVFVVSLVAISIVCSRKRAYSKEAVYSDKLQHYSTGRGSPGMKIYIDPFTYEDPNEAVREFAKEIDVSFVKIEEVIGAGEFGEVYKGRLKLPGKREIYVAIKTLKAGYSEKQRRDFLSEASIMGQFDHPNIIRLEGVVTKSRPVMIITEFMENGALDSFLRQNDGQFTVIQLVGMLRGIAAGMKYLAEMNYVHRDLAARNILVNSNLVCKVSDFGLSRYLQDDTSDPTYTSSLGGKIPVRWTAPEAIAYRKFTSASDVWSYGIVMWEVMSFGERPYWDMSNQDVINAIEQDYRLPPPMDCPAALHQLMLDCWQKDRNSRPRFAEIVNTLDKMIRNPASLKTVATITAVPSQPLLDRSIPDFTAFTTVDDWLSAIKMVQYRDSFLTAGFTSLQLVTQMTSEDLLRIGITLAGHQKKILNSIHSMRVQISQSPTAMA


How the values were obtained:
[1] = molecular target: T1, human EPHB1 without signal sequence, …; experiment: flow cytometry on 293F cells transfected with pFLAG-EPHB1
[2] = molecular target: T2, human EPHA4 without signal sequence, FLAG-tagged, expressed from pFLAG-EPHA4 (human, UniProt P54764 20-986); experiment: immunohistochemistry on formalin-fixed, paraffin-embedded 293F cells transiently expressing EPHA4; antibody at 2.5 μg/mL
T2 construct: also called EPHA4-expressing cells; not shown: FLAG tag supplied by the vector pFLAG-GW

[3] = molecular target: T1, human EPHB1 without signal sequence, …; experiment: flow cytometry on transfected 293F cells

T2 sequence (P54764 20-986): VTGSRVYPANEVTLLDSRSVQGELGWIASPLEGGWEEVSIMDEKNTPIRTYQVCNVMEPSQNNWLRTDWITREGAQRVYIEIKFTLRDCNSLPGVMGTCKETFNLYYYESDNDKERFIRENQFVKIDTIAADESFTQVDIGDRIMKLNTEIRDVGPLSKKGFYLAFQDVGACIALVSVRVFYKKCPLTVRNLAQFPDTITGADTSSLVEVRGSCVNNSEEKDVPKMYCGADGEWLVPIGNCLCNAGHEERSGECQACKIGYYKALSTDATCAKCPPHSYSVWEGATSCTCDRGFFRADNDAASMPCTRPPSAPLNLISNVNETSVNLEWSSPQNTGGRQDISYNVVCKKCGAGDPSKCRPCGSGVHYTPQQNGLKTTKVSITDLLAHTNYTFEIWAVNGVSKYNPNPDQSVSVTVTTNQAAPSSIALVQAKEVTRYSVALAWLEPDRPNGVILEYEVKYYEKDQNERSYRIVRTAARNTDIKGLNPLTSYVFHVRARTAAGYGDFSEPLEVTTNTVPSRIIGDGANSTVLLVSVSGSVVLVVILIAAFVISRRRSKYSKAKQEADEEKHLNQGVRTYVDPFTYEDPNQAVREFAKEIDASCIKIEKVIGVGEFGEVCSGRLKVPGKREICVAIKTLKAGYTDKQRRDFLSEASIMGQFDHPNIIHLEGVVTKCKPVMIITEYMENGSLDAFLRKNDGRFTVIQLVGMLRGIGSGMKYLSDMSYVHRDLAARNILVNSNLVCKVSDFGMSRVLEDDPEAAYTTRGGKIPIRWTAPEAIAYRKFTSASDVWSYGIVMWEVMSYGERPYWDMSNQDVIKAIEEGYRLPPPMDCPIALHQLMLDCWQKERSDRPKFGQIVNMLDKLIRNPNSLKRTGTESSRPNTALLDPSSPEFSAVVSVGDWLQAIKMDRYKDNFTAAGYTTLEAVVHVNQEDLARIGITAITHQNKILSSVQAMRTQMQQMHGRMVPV

Row | Binder | binding result [1] | binding result [2] | binding result [3]
1 | mouse anti-human EPHA2 antibody A201 (antibody, V domains shown, Mouse monoclonal antibody purified from hybridoma supernatant, isotype IgG1; also called A201 antibody) VH: EVQLQQSGAELVKPGASVKLSCTVSGFTFKDTYVHWVKQRPEQGLEWIGRIDPANANTKYDPKFQGKASITADTSSNTAYLQLSSLPSEDTAVYYCAAYGKSAWFAYWGQGTLVTVSA VL: DIQMTQTTSSLSASLGDRVTISCRASQDIGNYLNWYQQKPDGTVKVLIYYTSRLHSGVPSRFSGSGSGTDYSLTISNLEQEDIATYFCQQGHSLPPTFGGGTKLEIKR | binds | binds | –
2 | mouse anti-human EPHA2 antibody A205 (antibody, V domains shown, Mouse monoclonal antibody purified from hybridoma supernatant, isotype IgG2b; also called A205 antibody) VH: QIQLVQSGPELKKPGETVKISCKASGYTFTDYSMNWVKQAPGKGLKWMGWINTYTGEPTYADDFKGRFAFSLETSASTAYLQINNLKNEDTATYFCASPISLLRLLDYWGQGTTLTVSS VL: DVVMTQTPLSLPVSLGDQASIPCRSSQSLVHSNGNTYLHWYLQKPGQSPKLLIYKVSNRFSGVPDRFSGSGSGTDFTLKISRVEAEDLGVYFCSQSTHVPWTFGGGTKLEIKR | – | – | no binding
